Experimental findings from patent US20100104568A1 (published 2010) are described below.

Test [1] addresses human RANK-L, full length, membrane-bound, expressed on HEK293T cells (human) (UniProt O14788). Put plainly: FACS, HEK293T with human RANK-L, 16 pM Nanobody.
For test [2] the target is unchanged. Put plainly: FACS, HEK293T with human RANK-L, 80 pM Nanobody.
For test [3] the target is unchanged. Put plainly: FACS, HEK293T with human RANK-L, 3.2 pM Nanobody.
For test [4] the target is unchanged. Put plainly: FACS, HEK293T with human RANK-L, 400 pM Nanobody.
Test [5] shares this target. Put plainly: FACS, HEK293T with human RANK-L, 2000 pM Nanobody.
The target of test [6] is cynomolgus RANK-L, full length, membrane-bound, expressed on HEK293T cells (cynomolgus monkey). Put plainly: FACS, HEK293T with cynomolgus RANK-L, 400 pM Nanobody.
For test [7] the target is unchanged. Put plainly: FACS, HEK293T with cynomolgus RANK-L, 2000 pM Nanobody.
Test [8] concerns the target T1, human RANK-L (human, UniProt O14788 140-317).
T1 chain: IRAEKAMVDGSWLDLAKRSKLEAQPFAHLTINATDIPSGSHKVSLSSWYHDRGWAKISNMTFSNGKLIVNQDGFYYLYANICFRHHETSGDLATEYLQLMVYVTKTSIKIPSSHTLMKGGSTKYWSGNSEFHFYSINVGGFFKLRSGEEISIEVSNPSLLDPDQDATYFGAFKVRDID
Put plainly: competition ELISA.

Test [9] addresses T1, human RANK-L. Put plainly: competition ELISA.
The target of test [10] is T1, human RANK-L. Put plainly: cell-based or functional assay.

As for irrelevant Nanobody (VHH), the PE mean fluorescence is 77 in [1]; 82 in test [2]; 84 in test [3]; 90 in test [4]; 87 in test [5]; 140 in test [6]. The PE mean fluorescence in test [7] stood at 149.

B1: RANKL003p (VHH)
chain: EVQLVESGGGLVQPGGSLRLSCAASGRTFSRSAMGWFRQAPGKGREFVGFITGSGGTTYYADSVKGRFTISRDNAQNPVYLQMNSLRPEDTAVYYCAVYRRTYISSTYSESSEYDYWGQGTLVTVSSGGGGSGGGGSGGGGSGGGGSGGGGSGGGGSEVQLVESGGGLVQPGGSLRLSCAASGRTFSRSAMGWFRQAPGKGREFVGFITGSGGTTYYADSVKGRFTISRDNAQNPVYLQMNSLRPEDTAVYYCAVYRRTYISSTYSESSEYDYWGQGTLVTVSSGGGC
modifications: PEGylated with maleimide PEG, average MW 40,000; residue not stated (the entry ends in GGGC)
In the test with human RANK-L [8], B1 yielded an EC50 of 0.0409 nM.

B2: RANKL001p (VHH)
chain: EVQLVESGGGLVQPGGSLRLSCAASGFTFSSYPMGWFRQAPGKGREFVSSITGSGGSTYYADSVKGRFTISRDNAKNTLYLQMNSLRPEDTAVYYCAAYIRPDTYLSRDYRKYDYWGQGTLVTVSSGGGGSGGGSEVQLVESGGGLVQPGGSLRLSCAASGFTFSSYPMGWFRQAPGKGREFVSSITGSGGSTYYADSVKGRFTISRDNAKNTLYLQMNSLRPEDTAVYYCAAYIRPDTYLSRDYRKYDYWGQGTLVTVSSGGGC
modifications: PEGylated with maleimide PEG, average MW 40,000; residue not stated (the entry ends in GGGC)
B2 came in with an IC50 in the test with human RANK-L [9] of 0.0465 nM.

B3: osteoprotegerin (receptor, UniProt O00300 22-401, looked up)
chain: ETFPPKYLHYDEETSHQLLCDKCPPGTYLKQHCTAKWKTVCAPCPDHYYTDSWHTSDECLYCSPVCKELQYVKQECNRTHNRVCECKEGRYLEIEFCLKHRSCPPGFGVVQAGTPERNTVCKRCPDGFFSNETSSKAPCRKHTNCSVFGLLLTQKGNATHDNICSGNSESTQKCGIDVTLCEEAFFRFAVPTKFTPNWLSVLVDNLPGTKVNAESVERIKRQHSSQEQTFQLLKLWKHQNKDQDIVKKIIQDIDLCENSVQRHIGHANLTFEQLRSLMESLPGKKVGAEDIEKTIKACKPSDQILKLLSLWRIKNGDQDTLKGLMHALKHSKTYHFPKTVTQSLKKTIRFLHSFTMYKLYQKLFLEMIGNQVQSVKISCL
B3: the IC50, RANK-L induced NF-kappaB reporter (luciferase) in HEK293T in the test with human RANK-L [10] worked out at 6.03 nM.
